One molecule from US20070167370A1 (UUTECH, published 2007) can be followed below.

The target of the assay is T1, human GIP receptor, stably transfected in Chinese hamster lung (CHL) fibroblast cells (human, UniProt P48546 22-466).
T1 sequence (looked up): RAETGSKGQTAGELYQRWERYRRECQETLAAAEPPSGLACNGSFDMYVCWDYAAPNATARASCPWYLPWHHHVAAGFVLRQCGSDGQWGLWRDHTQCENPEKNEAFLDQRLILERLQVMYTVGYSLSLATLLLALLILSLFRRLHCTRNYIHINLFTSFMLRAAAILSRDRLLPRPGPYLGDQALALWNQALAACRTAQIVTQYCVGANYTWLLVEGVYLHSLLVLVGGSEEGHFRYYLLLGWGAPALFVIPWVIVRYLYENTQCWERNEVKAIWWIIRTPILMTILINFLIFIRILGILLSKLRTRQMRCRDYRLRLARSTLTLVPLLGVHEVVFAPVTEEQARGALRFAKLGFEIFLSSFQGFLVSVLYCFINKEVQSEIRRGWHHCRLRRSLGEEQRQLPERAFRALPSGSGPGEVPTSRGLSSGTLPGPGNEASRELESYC
Put plainly: cell-based or functional assay.

As to YAPGTFISDYSIAMDKIHQQDFVNWLLAQKGKKNDWKHNITQ [(Pro^3)GIP], the “IC50 of inhibition of GIP-induced cAMP formation (GIP receptor transfected CHL fibroblasts, native GIP 10^-7 M)” value came to 2600 nM.
